Our source for the Kd values is paper PMC10786891, “Massively parallel profiling of RNA-targeting CRISPR-Cas13d”.

Sequences and labels used below:
T1: EsCas13d, nuclease-dead (Eubacterium siraeum, UniProt B0MS50, R295A;H300A;R849A;H854A)
T1 sequence: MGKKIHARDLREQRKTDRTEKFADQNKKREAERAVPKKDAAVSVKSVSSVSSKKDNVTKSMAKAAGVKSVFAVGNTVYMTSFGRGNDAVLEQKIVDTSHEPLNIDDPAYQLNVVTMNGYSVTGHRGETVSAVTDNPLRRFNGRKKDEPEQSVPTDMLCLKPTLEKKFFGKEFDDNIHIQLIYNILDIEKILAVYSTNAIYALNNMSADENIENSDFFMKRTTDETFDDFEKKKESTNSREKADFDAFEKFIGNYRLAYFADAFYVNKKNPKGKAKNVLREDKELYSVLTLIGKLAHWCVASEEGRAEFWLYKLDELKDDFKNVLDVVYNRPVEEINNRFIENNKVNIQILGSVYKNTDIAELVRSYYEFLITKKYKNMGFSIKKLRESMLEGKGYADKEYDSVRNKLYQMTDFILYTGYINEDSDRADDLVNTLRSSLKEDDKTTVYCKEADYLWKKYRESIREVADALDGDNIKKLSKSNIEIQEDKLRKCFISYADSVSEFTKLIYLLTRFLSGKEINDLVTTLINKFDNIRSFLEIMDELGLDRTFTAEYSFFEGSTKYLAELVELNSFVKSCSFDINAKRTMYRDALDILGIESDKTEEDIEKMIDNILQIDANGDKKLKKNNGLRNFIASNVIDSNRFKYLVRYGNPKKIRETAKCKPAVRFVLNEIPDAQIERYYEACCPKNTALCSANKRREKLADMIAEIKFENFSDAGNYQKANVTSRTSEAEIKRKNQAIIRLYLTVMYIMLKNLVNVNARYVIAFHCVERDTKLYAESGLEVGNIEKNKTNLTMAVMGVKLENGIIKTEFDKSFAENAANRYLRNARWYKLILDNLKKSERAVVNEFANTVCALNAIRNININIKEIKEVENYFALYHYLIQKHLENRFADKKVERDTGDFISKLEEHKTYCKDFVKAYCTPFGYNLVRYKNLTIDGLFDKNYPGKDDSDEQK

B1: target 1 C6U,U10A (mixed)
RNA 1: CACCCGUGCAAAAAUGCAGGGGUCUAAAACUGAGCGGAUAACCUCUCUAUGG
RNA 2: GGGAAUGGAUCCACAUCUACGAAUUCGUACCAUAGAGAGGUAAUCUGCUCACCGAGAUCGGAAGAGCACACGU
B2: target 1 insA 3' of 19,insG 3' of 4 (mixed)
RNA 1: CACCCGUGCAAAAAUGCAGGGGUCUAAAACUGAGCGGAUAACCUCUCUAUGG
RNA 2: GGGAAUGGAUCCACAUCUACGAAUUCGUACCAUAAGAGAGGUUAUCCGCGUCACCGAGAUCGGAAGAGCACACGU
B3: target 1 A9C,C21U (mixed)
RNA 1: CACCCGUGCAAAAAUGCAGGGGUCUAAAACUGAGCGGAUAACCUCUCUAUGG
RNA 2: GGGAAUGGAUCCACAUCUACGAAUUCGUACUAUAGAGAGGUUCUCCGCUCACCGAGAUCGGAAGAGCACACGU
B4: target 1 insC 3' of 19,insU 3' of 9 (mixed)
RNA 1: CACCCGUGCAAAAAUGCAGGGGUCUAAAACUGAGCGGAUAACCUCUCUAUGG
RNA 2: GGGAAUGGAUCCACAUCUACGAAUUCGUACCAUCAGAGAGGUUAUUCCGCUCACCGAGAUCGGAAGAGCACACGU
B5: target 1 C6G,C7G (mixed)
RNA 1: CACCCGUGCAAAAAUGCAGGGGUCUAAAACUGAGCGGAUAACCUCUCUAUGG
RNA 2: GGGAAUGGAUCCACAUCUACGAAUUCGUACCAUAGAGAGGUUAUGGGCUCACCGAGAUCGGAAGAGCACACGU
B6: target 1 A1U,G15C (mixed)
RNA 1: CACCCGUGCAAAAAUGCAGGGGUCUAAAACUGAGCGGAUAACCUCUCUAUGG
RNA 2: GGGAAUGGAUCCACAUCUACGAAUUCGUACCAUAGACAGGUUAUCCGCUCUCCGAGAUCGGAAGAGCACACGU
B7: target 1 G5U,A16C (mixed)
RNA 1: CACCCGUGCAAAAAUGCAGGGGUCUAAAACUGAGCGGAUAACCUCUCUAUGG
RNA 2: GGGAAUGGAUCCACAUCUACGAAUUCGUACCAUAGCGAGGUUAUCCUCUCACCGAGAUCGGAAGAGCACACGU
B8: target 1 C2A,C7G (mixed)
RNA 1: CACCCGUGCAAAAAUGCAGGGGUCUAAAACUGAGCGGAUAACCUCUCUAUGG
RNA 2: GGGAAUGGAUCCACAUCUACGAAUUCGUACCAUAGAGAGGUUAUGCGCUAACCGAGAUCGGAAGAGCACACGU
B9: target 1 insG 3' of 6 (mixed)
RNA 1: CACCCGUGCAAAAAUGCAGGGGUCUAAAACUGAGCGGAUAACCUCUCUAUGG
RNA 2: GGGAAUGGAUCCACAUCUACGAAUUCGUACCAUAGAGAGGUUAUCCGGCUCACCGAGAUCGGAAGAGCACACGU
B10: target 1 C7G,G13A (mixed)
RNA 1: CACCCGUGCAAAAAUGCAGGGGUCUAAAACUGAGCGGAUAACCUCUCUAUGG
RNA 2: GGGAAUGGAUCCACAUCUACGAAUUCGUACCAUAGAGAAGUUAUGCGCUCACCGAGAUCGGAAGAGCACACGU
B11: target 1 insG 3' of 18,insA 3' of 2 (mixed)
RNA 1: CACCCGUGCAAAAAUGCAGGGGUCUAAAACUGAGCGGAUAACCUCUCUAUGG
RNA 2: GGGAAUGGAUCCACAUCUACGAAUUCGUACCAUAGGAGAGGUUAUCCGCUCAACCGAGAUCGGAAGAGCACACGU
B12: target 1 insA 3' of 10,insU 3' of 5 (mixed)
RNA 1: CACCCGUGCAAAAAUGCAGGGGUCUAAAACUGAGCGGAUAACCUCUCUAUGG
RNA 2: GGGAAUGGAUCCACAUCUACGAAUUCGUACCAUAGAGAGGUUAAUCCGUCUCACCGAGAUCGGAAGAGCACACGU
B13: target 1 G17A,A18C (mixed)
RNA 1: CACCCGUGCAAAAAUGCAGGGGUCUAAAACUGAGCGGAUAACCUCUCUAUGG
RNA 2: GGGAAUGGAUCCACAUCUACGAAUUCGUACCAUCAAGAGGUUAUCCGCUCACCGAGAUCGGAAGAGCACACGU
B14: target 1 insA 3' of 10,insU 3' of 7 (mixed)
RNA 1: CACCCGUGCAAAAAUGCAGGGGUCUAAAACUGAGCGGAUAACCUCUCUAUGG
RNA 2: GGGAAUGGAUCCACAUCUACGAAUUCGUACCAUAGAGAGGUUAAUCUCGCUCACCGAGAUCGGAAGAGCACACGU
B15: target 1 U11C,C21A (mixed)
RNA 1: CACCCGUGCAAAAAUGCAGGGGUCUAAAACUGAGCGGAUAACCUCUCUAUGG
RNA 2: GGGAAUGGAUCCACAUCUACGAAUUCGUACAAUAGAGAGGCUAUCCGCUCACCGAGAUCGGAAGAGCACACGU
B16: target 1 insG 3' of 22,insA 3' of 6 (mixed)
RNA 1: CACCCGUGCAAAAAUGCAGGGGUCUAAAACUGAGCGGAUAACCUCUCUAUGG
RNA 2: GGGAAUGGAUCCACAUCUACGAAUUCGUACGCAUAGAGAGGUUAUCCAGCUCACCGAGAUCGGAAGAGCACACGU
B17: target 1 U8G,G12C (mixed)
RNA 1: CACCCGUGCAAAAAUGCAGGGGUCUAAAACUGAGCGGAUAACCUCUCUAUGG
RNA 2: GGGAAUGGAUCCACAUCUACGAAUUCGUACCAUAGAGAGCUUAGCCGCUCACCGAGAUCGGAAGAGCACACGU
B18: target 1 insU 3' of 15,insU 3' of 9 (mixed)
RNA 1: CACCCGUGCAAAAAUGCAGGGGUCUAAAACUGAGCGGAUAACCUCUCUAUGG
RNA 2: GGGAAUGGAUCCACAUCUACGAAUUCGUACCAUAGAGUAGGUUAUUCCGCUCACCGAGAUCGGAAGAGCACACGU
B19: target 1 insU 3' of 22 (mixed)
RNA 1: CACCCGUGCAAAAAUGCAGGGGUCUAAAACUGAGCGGAUAACCUCUCUAUGG
RNA 2: GGGAAUGGAUCCACAUCUACGAAUUCGUACUCAUAGAGAGGUUAUCCGCUCACCGAGAUCGGAAGAGCACACGU
B20: target 1 insC 3' of 22,insA 3' of 12 (mixed)
RNA 1: CACCCGUGCAAAAAUGCAGGGGUCUAAAACUGAGCGGAUAACCUCUCUAUGG
RNA 2: GGGAAUGGAUCCACAUCUACGAAUUCGUACCCAUAGAGAGGAUUAUCCGCUCACCGAGAUCGGAAGAGCACACGU
B21: target 1 U10C,A16C (mixed)
RNA 1: CACCCGUGCAAAAAUGCAGGGGUCUAAAACUGAGCGGAUAACCUCUCUAUGG
RNA 2: GGGAAUGGAUCCACAUCUACGAAUUCGUACCAUAGCGAGGUCAUCCGCUCACCGAGAUCGGAAGAGCACACGU
B22: target 1 insC 3' of 19,insC 3' of 11 (mixed)
RNA 1: CACCCGUGCAAAAAUGCAGGGGUCUAAAACUGAGCGGAUAACCUCUCUAUGG
RNA 2: GGGAAUGGAUCCACAUCUACGAAUUCGUACCAUCAGAGAGGUCUAUCCGCUCACCGAGAUCGGAAGAGCACACGU
B23: target 1 insC 3' of 13,insA 3' of 11 (mixed)
RNA 1: CACCCGUGCAAAAAUGCAGGGGUCUAAAACUGAGCGGAUAACCUCUCUAUGG
RNA 2: GGGAAUGGAUCCACAUCUACGAAUUCGUACCAUAGAGAGCGUAUAUCCGCUCACCGAGAUCGGAAGAGCACACGU
B24: target 1 insU 3' of 15,insU 3' of 12 (mixed)
RNA 1: CACCCGUGCAAAAAUGCAGGGGUCUAAAACUGAGCGGAUAACCUCUCUAUGG
RNA 2: GGGAAUGGAUCCACAUCUACGAAUUCGUACCAUAGAGUAGGUUUAUCCGCUCACCGAGAUCGGAAGAGCACACGU
B25: target 1 C4U,U10C (mixed)
RNA 1: CACCCGUGCAAAAAUGCAGGGGUCUAAAACUGAGCGGAUAACCUCUCUAUGG
RNA 2: GGGAAUGGAUCCACAUCUACGAAUUCGUACCAUAGAGAGGUCAUCCGUUCACCGAGAUCGGAAGAGCACACGU
B26: target 1 insA 3' of 12,insA 3' of 3 (mixed)
RNA 1: CACCCGUGCAAAAAUGCAGGGGUCUAAAACUGAGCGGAUAACCUCUCUAUGG
RNA 2: GGGAAUGGAUCCACAUCUACGAAUUCGUACCAUAGAGAGGAUUAUCCGCUACACCGAGAUCGGAAGAGCACACGU
B27: target 1 U19A (mixed)
RNA 1: CACCCGUGCAAAAAUGCAGGGGUCUAAAACUGAGCGGAUAACCUCUCUAUGG
RNA 2: GGGAAUGGAUCCACAUCUACGAAUUCGUACCAAAGAGAGGUUAUCCGCUCACCGAGAUCGGAAGAGCACACGU

The series deals with T1, EsCas13d, nuclease-dead. The experiment in a line: crRNA (strand 1, pre-loaded); Mg2+; 40 mM Tris-HCl pH 7.5, 150 mM NaCl, 6 mM MgCl2, 1 mM DTT, 0.1% Tween-20, 0.2 mg/ml BSA; 25 C; 10 min per concentration, then washed. The conditions noted are these: tags: His6-TwinStrep-SUMO cleaved; N-terminal SNAP kept (SNAP-Surface 488); label: 3' end held by stalled T7 RNA polymerase.
On to B1, for which the Kd is 9.8 ± 0.4 nM. B2 returned a Kd of 15.1 ± 0.7 nM. In turn, B3 had a Kd of 9.9 ± 0.4 nM. B4 had a Kd of about 80 nM. With B5, the Kd is 13.3 ± 0.7 nM.

The molecule B6 had a Kd of 56 ± 24 nM.

Molecule B7 gave a Kd of 60 ± 7 nM. In the case of B8, binding was characterised by a dissociation constant (Kd) of 15.4 ± 0.9 nM. Take B9: the Kd came to 11.4 ± 0.5 nM.

For the molecule B10, the dissociation constant Kd was 15.8 ± 1.5 nM. The result for B11 reads 73 ± 25 nM; that for B12, 14.2 ± 1.1 nM; that for B13, 67 ± 10 nM. The result for B14 reads 39.3 ± 2.6 nM. For B15 the value was 51 ± 6 nM; for B16, 54 ± 18 nM. B17 returned a Kd of 16.4 ± 0.8 nM.

B18: binding was put at a Kd of 59 ± 16 nM. Take B19: binding was put at a Kd of 38 ± 5 nM. The molecule B20 registered a Kd of 42 ± 5 nM. On to B21, for which the Kd is 95 ± 8 nM. B22 returned a Kd of 48 ± 9 nM.

Turning to B23, the Kd was 19.1 ± 2.2 nM. For B24 the value was 8.1 ± 0.4 nM. B25 showed a Kd of 52 ± 23 nM. Molecule B26 gave a Kd of 20.5 ± 1.2 nM. B27 gave a Kd of 28.8 ± 1.5 nM.

As usually defined, the Kd is the concentration at which binding is half-saturated. Low readings indicate a tighter complex, high ones a looser complex.
